Source: patent US20110165265A1, “TRAIL VARIANTS FOR TREATING CANCER” (FUNDACIÓ GENÒMICA (CRG), priority 2007, published 2011)
“And” between values parts separate entries of the source, which are not always exact repeats. Equal entries are not always repeated. “Also recorded” adds a separate entry of the source.

T1: DcR1 (Homo sapiens, UniProt O14798)
T1 construct: soluble, recombinant DcR1-Ig (sDcR1) and DcR2-Ig (sDcR2); purchased R&D Systems
T1 sequence (O14798 26-236 limits assumed): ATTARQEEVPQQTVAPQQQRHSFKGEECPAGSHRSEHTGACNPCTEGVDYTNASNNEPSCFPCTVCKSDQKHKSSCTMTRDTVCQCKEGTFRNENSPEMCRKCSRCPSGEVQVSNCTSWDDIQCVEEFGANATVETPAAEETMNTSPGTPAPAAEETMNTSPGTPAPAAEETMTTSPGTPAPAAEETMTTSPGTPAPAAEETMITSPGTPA


Key:
Colo205 cells [1] = experiment: DEVDase (caspase) activity in Colo205; type: cell-based, human; conditions: Colo205, 5 mM aspirin 24 h
Experimental: (A) Aspirin induces expression of DR5, DcR1 and DcR2 on the cell surface. Colo205 cells were treated with 5 mM aspirin for 24 h and cell surface expression of DR4, DR5, DcR1 and DcR2 was measured by immunostaining and detected with flow cytometry. The histograms shown include isotype control (black, open peak), untreated Colo205 (grey, closed peak) and aspirin-treated Colo205 (grey, open peak) samples. The histograms are representatives of three independent experiments. […] DEVDase activity was expressed as average nmol AMC released per minute by 1 mg total cellular protein±SD of 3 independent experiments.
In order to determine the cell surface expression of each of the TRAIL receptors on A2780 carcinoma cells, cells were washed twice in PBS containing 1% BSA and then incubated with monoclonal antibodies to DR4, DR5, DcR1 or DcR2 (Alexis) for 40 min. After two wash steps with PBS/BSA, anti-mouse IgG-FITC (Sigma) secondary antibody was added for 30 min. All incubations were carried out on ice. Negative controls contained isotype control antibody. Cells were analyzed by a FacsCalibur flow cytometer. […] Substrate cleavage leading to the release of free AMC was monitored at 37° C. at 60 sec intervals for 25 cycles using a Wallac multilabel counter (excitation 355 nm, emission 460 nm). […]

Colo205 cells [2] = experiment: Colo205 apoptosis after pre-incubation of ligand with soluble receptor-Ig; type: cell-based, human; conditions: 10 ng/ml ligand; for effect of pre-incubation with sDcR1 on pro-apoptotic activity: sDcR1 up to 2 μg/ml
Experimental: (A) Effect of soluble recombinant DcR1-Ig (sDcR1) on apoptosis induction by TRAIL and DR5-selective variants. […] All graphs are representatives of two independent repeats. (D) Neutralizing antibodies against DcR1 and DcR2 can augment wtTRAIL- but not DR5-variant induced cell death. […] Induction of apoptosis was measured 3 h post-treatment using Annexin V assay. […] The graphs show the average±SEM of three independent experiments.
Induction of cell death was assessed by Annexin V assay 3 h after treatment (FIG. 14), as described above. […] (FIG. 14C). This confirms that the observed differences in blocking efficacy are due to reduced ability of the decoy receptors to bind and inhibit D269H and D269HE195R.

A2780-Luc xenografts = experiment: IP A2780-Luc xenografts, bioluminescence imaging; conditions: for mean signal reduction as to vehicle treated mice: day 16, IP treatment; for light emission (bioluminescent signal): day 16, mean±SEM; for median survival: surrogate endpoint signal ≧3.1×10^8
Experimental: Visualization of response to TRAIL, TRAIL-DR5, cisplatin and to the combination of either ligand with cisplatin by means of bioluminescence imaging. Nude mice were inoculated IP with 2×10^6 A2780-Luc cells. After 5 days treatment was initiated; cisplatin (4 mg/kg IP) or vehicle at day 5 and 12, TRAIL, TRAIL-DR5 (5 mg/kg IP) or vehicle at day 5-10 and 12-16, or a combination of TRAIL or TRAIL-DR5 with cisplatin.
Female nude mice (Hsd:Athymic Nude-nu) were obtained from Harlan Nederland (Horst, The Netherlands) at 6-8 weeks of age (˜21 g). Inoculation was performed after 10 days of acclimatization.
Imaging was conducted with the IVIS 100 series (Xenogen Corporation Alameda, Calif.), composed of a cooled charge-coupled device camera connected to a light tight black chamber. Before in vivo imaging animals were anesthetized with 4% isoflurane and injected IP with D-luciferin (150 mg/kg, Xenogen) reconstituted in sterile PBS. Mice were placed in prone position on a warmed stage (37° C.) in the imaging chamber, and grayscale reference images were obtained under dim illumination. Pseudocolor images representing bioluminescent intensity were acquired with Livinglmage software (version 2.50, Xenogen) 10 and 15 min after D-luciferin injection in complete darkness. These images were superimposed on the grayscale images for analysis with Igor Pro software (version 4.09, WaveMetrics, Lake Oswego, Oreg.). All bioluminescence imaging (BLI) data are depicted in radiance units (photons/sec/cm^2/sr) enabling absolute comparisons between bioluminescent images and represent final data obtained after subtraction of the background signal.

DR4 = target: T2, DR4 (Homo sapiens, UniProt O00220); conditions: cited from earlier work
T2 construct: the more commonly used dimeric TRAIL-receptor-IgG Fc chimeric constructs

EM-2 cells = experiment: Cytotoxicity in EM-2 cells; type: cell-based
Text: Similar results were obtained by using EM-2 chronic myeloid leukemia cells expressing only the DR4 receptor and lacking the DR5 receptor and by using the ovarian cancer cell line A2780, which expresses DR5 but lacks DR4 on its surface and is relatively insensitive toward TRAIL-induced cell death.

SiHa cells = experiment: Cell survival / sensitivity of SiHa; type: cell-based
Text: (A) Effect of increasing concentration of Bortezomib on cell survival. […] (C) 10Gy Radiotherapy had no effect in further decreasing cell viability of SIHA cells in both TRAIL and DR5 mutant treated cells.

Colo205 cells [3] = experiment: Kinetics of receptor activation and apoptosis induction, ligand wash-out in Colo205; type: cell-based, human; conditions: Colo205, 30 ng/ml; for incubation time to reach 50% of total efficacy: ligand washed out, Annexin V at 240 min
Experimental: Cell death induction was expressed relative to the percentage of death induced after 240 min without washing out the ligands.
The cells were harvested and cell death was quantified with Annexin V labelling (FIG. 16B), as described above. The data was fitted with an interpolating spline using the software MatlabR.
The cells were then incubated to a total of 180 min in normal growth medium and then the level of cell death was determined (FIG. 16C).

SW948 cells = experiment: Cell survival / sensitivity of SW948; type: cell-based
Colo205 cells [4] = experiment: Colo205 apoptosis after neutralizing antibodies to DcR1 and DcR2; type: cell-based, human; conditions: for dose that induced approximately 50% cell death: Annexin V
Experimental: All graphs are representatives of two independent repeats. […] Induction of apoptosis was measured 3 h post-treatment using Annexin V assay. […] The graphs show the average±SEM of three independent experiments.
Apoptotic cell death was measured 3 h post-treatment using staining Annexin V assay (FIG. 15), as described above. Increase in apoptosis was expressed as fold increase compared to the level of apoptosis caused by the ligands alone, in the absence of the neutralizing antibodies.

[5] = system: HCT15, HT29 and RKO cells; experiment: Cell survival of HCT15, HT29 and RKO; type: cell-based
LoVo cells = experiment: Cell survival / sensitivity of LoVo; type: cell-based
Text: C) Effect of increasing concentration of 5-Flurouracil on Lovo cells.

DcR1 = target: T1, DcR1; conditions: cited from earlier work

T2 sequence (O00220 24-239 limits assumed): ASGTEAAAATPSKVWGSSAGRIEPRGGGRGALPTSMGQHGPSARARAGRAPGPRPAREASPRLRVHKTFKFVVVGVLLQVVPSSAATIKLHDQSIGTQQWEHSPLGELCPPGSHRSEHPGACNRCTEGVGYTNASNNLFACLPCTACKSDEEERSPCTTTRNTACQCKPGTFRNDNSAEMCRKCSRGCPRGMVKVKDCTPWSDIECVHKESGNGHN

Row | Molecule | sensitisation by aspirin (Colo205 cells [1]) | effect of pre-incubation with sDcR2 on apoptosis induction (Colo205 cells [2]) | effect of pre-incubation with sDcR1 on pro-apoptotic activity (Colo205 cells [2]) | mean signal reduction as to vehicle treated mice (A2780-Luc xenografts) [%] | light emission (bioluminescent signal) (A2780-Luc xenografts) | median survival (A2780-Luc xenografts) [days] | effect of combination with bortezomib (SiHa cells) | sensitivity, single agent (SiHa cells) | incubation time to reach 50% of total efficacy (Colo205 cells [3]) | cell viability, single agent (SW948 cells) | apoptosis rate enhancement with neutralizing antibodies to both DcR1 and DcR2 (Colo205 cells [4]; Colo205) | fold increase in apoptosis with DcR1 neutralising antibody (Colo205 cells [4]; Colo205, 3 h) | dose that induced approximately 50% cell death (Colo205 cells [4]; Colo205, 3 h) [ng/mL] | cell viability with or without 5-Flurouracil [5] | cell viability, single agent (LoVo cells) | effect of 5-FU and Aspirin on induced apoptosis (LoVo cells) | further results
1 | wtTRAIL: wild-type soluble recombinant human TRAIL, amino acids 114-281 (SEQ ID NO: 3) (protein, listed as Homo sapiens, TRAIL 114-281) MVRRGRVAAHTGTRGRSNTSSNSKNKAGRKNSWSSRSGHSSNHRNGVHKGYYYSTYRKNTKNDKMVYYKYTSYDMKSARNSCWSKDAYGYSYGGKNDRVSVTNHDMDHASGAVG | increased the sensitivity | able to block apoptosis induction | completely blocked | 48.8 | 2.3×10^8±3.1×10^7 radiance units | 21 | increased tumor cell death | resistant | 60.81 min and 60.8 ± 4.3 min | greater loss in cell viability compared to that of the DR5 mutant at higher concentrations | 1.5±0.1 fold | 1.5 fold | ~20 | equal decrease in cell viability | equal decrease in cell viability | enhanced apoptosis | effect of pre-incubation with soluble DR5 on pro-apoptotic activity (Colo205 cells [2]): completely block; Kd (DR4; surface plasmon resonance, read-out: binding affinity Kd for DR4): 2.5 nM; cell death (EM-2 cells; EM-2, 50 ng/ml): > 80%; incubation time for significant pro-caspase-8 processing (Colo205 cells [3]; Western blot): 60 min; effect of 5-FU on sensitivity (SW948 cells): enhanced sensitivity; sensitivity, single agent comparison (SW948 cells): higher sensitivity; reduction of apoptosis-inducing potential in the presence of the decoy receptors (Colo205 cells [4]; Colo205): approximately 40%; Kd (DcR1; surface plasmon resonance, read-out: binding affinity Kd for DcR1): ~25 nM
2 | D269HE195R: rhTRAIL (114-281) carrying mutations D269H and E195R; DR5-selective TRAIL variant (protein) MVRERGPQRVAAHITGTRGRSNTLSSPNSKNEKALGRKINSWESSRSGHSFLSNLHLRNGELVIHEKGFYYIYSQTYFRFQERIKENTKNDKQMVQYIYKYTSYPDPILLMKSARNSCWSKDAEYGLYSIYQGGIFELKENDRIFVSVTNEHLIDMHHEASFFGAFLVG | much more pronounced | no complete protection could be achieved | failed to reduce | 68.3 | 1.4×10^8±1.3×10^7 radiance units | 21 | increased tumor cell death | resistant | 3.55 min and 3.6 ± 0.4 min | decreased cell viability | not affected | no increase in apoptosis | ~4 | equal decrease in cell viability | equal decrease in cell viability | enhanced apoptosis | binding to DR4 (DR4; earlier work referred to): virtually absent; cell death induction (EM-2 cells; EM-2 cells): hardly any apoptosis; effect of 5 or 10 min pre-incubation with wtTRAIL on induced apoptosis (Colo205 cells [3]): failed to reduce; effect of Aspirin (SW948 cells): enhanced the effect; fold increase in apoptosis with DcR2 neutralising antibody (Colo205 cells [4]; Colo205, 3 h): no increase of apoptosis; also recorded: no increase in apoptosis; fold increase in apoptosis with neutralizing antibodies to both DcR1 and DcR2 (Colo205 cells [4]; Colo205, 3 h): not and not affected; sensitivity, single agent comparison (LoVo cells): higher sensitivity; binding capacity to DcR1 (DcR1; earlier work referred to): virtually absent
